From publication PMC8888459

What was measured:
[1] = target: Yah1-GST fusion protein (S. cerevisiae) (UniProt Q12184); assay: pull-down; GST-tagged Yah1 bait (2.5 μM) incubated with NIA (5 μM or increasing) and/or Isu1 (7.5 μM) in buffer PD (40 mM Hepes–KOH pH 7.5, 5% glycerol, 100 mM KCl, 1 mM DTT, 10 mM MgCl2) 15 min at 25 °C; glutathione agarose 1 h at 4 °C; SDS-PAGE, InstantBlue, densitometry corrected for binding to GST; aerobic (Yah1 cluster oxidised)
[2] = target: NIA–Isu1 complex with C. thermophilum Isu1 (S. cerevisiae | E. coli (endogenous in the expression host) | C. thermophilum) (UniProt P25374); assay: pull-down; competition: Yah1^GST (2.5 μM) with NIA (5 μM), with or without Isu1Sc or Isu1Ct (7.5 μM), then Yfh1 WT or DE/KK added (12.5 μM or increasing concentrations); glutathione resin; densitometry, amount without Yfh1 set as 100%; buffer PD

Sequence of Yah1-GST fusion protein (S. cerevisiae) (Q12184 17-172): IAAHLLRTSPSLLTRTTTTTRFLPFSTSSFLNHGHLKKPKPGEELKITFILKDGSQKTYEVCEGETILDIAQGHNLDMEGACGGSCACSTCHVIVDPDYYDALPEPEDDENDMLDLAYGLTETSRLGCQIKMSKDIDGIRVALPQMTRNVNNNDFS

Substance	binding as percent of the WT control [1] [%]	percent of the control left pulled down with Yah1^GST at 5 μM Yfh1 [2] [%]	percent reduction of Nfs1, Isd11 and Isu1 pulled down with Yah1^GST at a fivefold excess of Yfh1 (12.5 μM) [2] [%]
NIA–Isu1 complex containing Nfs1(R313A, R316A, R318A), with Isu1Ct (from UniProt P25374 37-497; Q6Q560 1-94; P0A6A8 1-78)	30		
NIA–Isu1 complex containing Nfs1(R313E, R316E, R318E), with Isu1Ct (from UniProt P25374 37-497; Q6Q560 1-94; P0A6A8 1-78)	20		
Yfh1 (frataxin) with a C-terminal polyhistidine tag (from UniProt Q07540 52-174) (natural protein)		30	85
